From US20240002498A1 (TENEOBIO, published 2024)

Assays:
[1] = target: T1, human Folate Receptor Alpha (FOLR1) on cells (human, UniProt P15328 25-234); assay: cell binding, CHO cells stably expressing human FOLR1
T1 construct: whole, on cells; Endogenous on IGROV-1, OVCAR-3, SKOV-3, HT-29 cells; transfected on CHO cells; the cell is named under assay; also called FRα; FRa

[2] = target: T1, human Folate Receptor Alpha (FOLR1) on …; assay: flow cytometry, IGROV-1 cells
[3] = target: T1, human Folate Receptor Alpha (FOLR1) on …; assay: flow cytometry, CHO cells stably expressing human FOLR1
[4] = target: T1, human Folate Receptor Alpha (FOLR1) on …; assay: cell binding, IGROV-1 cells
[5] = target: T1, human Folate Receptor Alpha (FOLR1) on …; assay: cell binding, OVCAR-3 cells
cyno FOLR1 on CHO cells [6] = target: T2, cyno FOLR1 on CHO cells (cyno (Cynomolgus macaque), UniProt A0A2K5U044 25-234); assay: flow cytometry, CHO cells stably expressing cyno FOLR1
T2 construct: whole, on cells; also called cyFOLR1
T2 sequence (A0A2K5U044 entry or part of it): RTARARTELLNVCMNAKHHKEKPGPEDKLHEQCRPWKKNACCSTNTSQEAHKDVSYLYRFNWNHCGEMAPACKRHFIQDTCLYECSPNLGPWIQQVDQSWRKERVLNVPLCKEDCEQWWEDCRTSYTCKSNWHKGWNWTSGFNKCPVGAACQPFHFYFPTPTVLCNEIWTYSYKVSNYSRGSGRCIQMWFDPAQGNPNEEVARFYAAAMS

cyno FOLR1 on CHO cells [7] = target: T2, cyno FOLR1 on CHO cells; assay: cell binding, CHO cells stably expressing cyno FOLR1
CHO_huFOLR2 = target: T3, CHO_huFOLR2 (human, UniProt P14207); assay: flow cytometry on CHO cells stably expressing human FOLR2, MFI fold over background
T3 construct: stably expressed on CHO cells; also called human FOLR2 on CHO cells; folate receptor beta
T3 sequence (P14207 17-230 limits assumed): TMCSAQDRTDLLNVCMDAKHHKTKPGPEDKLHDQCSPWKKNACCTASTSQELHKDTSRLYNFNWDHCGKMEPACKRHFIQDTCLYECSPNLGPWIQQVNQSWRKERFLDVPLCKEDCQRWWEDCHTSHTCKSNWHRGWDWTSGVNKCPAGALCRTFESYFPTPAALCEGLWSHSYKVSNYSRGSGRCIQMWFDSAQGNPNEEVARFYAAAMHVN
Experimental: Anti-FOLR1 HCAb binding to CHO cells stably expressing human FOLR2 (also known as folate receptor beta, FRβ), and CHO cells stably expressing human IZUMO1R (also known as folate receptor delta, FOLR4, FRδ, JUNO) was analyzed for a number of different clones. Data are presented in FIG. 2, panels A-B, as MFI fold over background. Insets show binding of positive control anti-FOLR2 and anti-IZUMO1R antibodies, respectively, in dark grey, compared to the respective isotype control in light grey.

recombinant human FOLR1 = recombinant human FOLR1 (human, UniProt P15328 25-234); assay: BLI, Octet QK-384, recombinant human FOLR1
recombinant human FOLR1, sequence (P15328 25-234 limits assumed): as the sequence (A0A2K5U044 entry or part of it) above, with T2I, R4W, K37R, P146A, Y171H counted along it
Experimental: As used herein, the “Kd” or “Kd value” refers to a dissociation constant determined by BioLayer Interferometry, using an Octet QK384 instrument (Fortebio Inc., Menlo Park, CA) in kinetics mode. For example, anti-mouse Fc sensors are loaded with mouse-Fc fused antigen and then dipped into antibody-containing wells to measure concentration dependent association rates (kon). Antibody dissociation rates (koff) are measured in the final step, where the sensors are dipped into wells containing buffer only. The Kd is the ratio of koff/kon. (For further details see, Concepcion, J, et al., Comb Chem High Throughput Screen, 12 (8), 791-800, 2009).
Table 17 summarizes affinity and epitope bin information for anti-FOLR1 heavy chain antibodies (HCAbs). Column 1 indicates the clone ID of the HCAb. Column 2 indicates the affinity of the HCAb to recombinant human FOLR1 as measured by Bio-layer interferometry (BLI) using an Octet QK-384. Column 3 indicates the epitope bin of HCAb as determined by a competition BLI binding experiment using an Octet QK-384.

mouse FOLR1 on CHO cells = target: T4, mouse FOLR1 on CHO cells (mouse, UniProt P35846 25-232); assay: cell binding, CHO cells stably expressing mouse FOLR1
T4 construct: whole, on cells; also called msFOLR1
T4 sequence (P35846 25-232): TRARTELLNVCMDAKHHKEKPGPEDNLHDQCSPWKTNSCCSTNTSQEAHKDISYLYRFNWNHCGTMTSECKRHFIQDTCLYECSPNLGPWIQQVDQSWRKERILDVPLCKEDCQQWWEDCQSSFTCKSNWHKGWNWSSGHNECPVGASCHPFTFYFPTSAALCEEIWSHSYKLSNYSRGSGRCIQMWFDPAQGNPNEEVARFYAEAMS

T1 sequence (P15328 25-234): as the sequence (A0A2K5U044 entry or part of it) above, with T2I, R4W, K37R, P146A, Y171H counted along it

Row | Binder | EC50 [1] [nM] | fold over background MFI [2] [fold over background] | fold over background MFI [3] [fold over background] | EC50 [4] [nM] | EC50 [5] [nM] | fold over background MFI (cyno FOLR1 on CHO cells [6]) [fold over background] | EC50 (cyno FOLR1 on CHO cells [7]) [nM] | binding result (CHO_huFOLR2) | Kd (recombinant human FOLR1) [nM] | EC50 (mouse FOLR1 on CHO cells) [nM]
1 | anti-FOLR1 heavy chain antibody (HCAb, UniAb) clone ID 352391 (antibody, V domains shown, Heavy chain-only antibody (no light chain), F18 family) VH: EVQLVESGGGLVQPGGSLRLSCAASGFSFSSYSMKWVRQAPGKGLEWVSYISSSSDTIEYADSVKGRFTISRDNAKNSLYLQMNSLRDEDTAVYYCASVGLDFDYRGQGTLVTVSS | 5.5 | 646 | 944 | 2.8 | 2.8 | 198 | 2.7 | no binding (tested: 100 nM) | 34.8 | 
2 | anti-FOLR1 heavy chain antibody (HCAb, UniAb) clone ID 352672 (antibody, V domains shown, Heavy chain-only antibody (no light chain), F18 family) VH: EVQLVESGGGLVQPGGSLRLSCAASGFSFSSYSMKWVRQAPGKGLEWVSYISRSSDTIEYADSVKGRFTISRDNAKNSLYLQMNSLRDEDTAVYYCATVGLDFDYRGQGTLVTVSS | 5.9 | 2300 | 1070 | 8.8 | 6.3 | 623 | 2.9 | no binding (tested: 100 nM) | 36 | 
3 | anti-FOLR1 heavy chain antibody (HCAb, UniAb) clone ID 352564 (antibody, V domains shown, Heavy chain-only antibody (no light chain), F18 family) VH: EVQLVESGGGLVQPGGSLRLSCAASGFSFSSYSMKWVRQAPGKGLEWVSYITSSSSTIEYADSVKGRFTISRDNAKNSLYLQMNSLRDEDTAVYYCASVGLEFDYRGQGTLVTVSS | 5.4 | 1790 | 816 | 3.7 | 32.6 | 84.5 | 5.7 | no binding (tested: 100 nM) | 81.1 | 
4 | anti-FOLR1 heavy chain antibody (HCAb, UniAb) clone ID 352372 (antibody, V domains shown, Heavy chain-only antibody (no light chain), F18 family) VH: EVQLVESGGGLVQPGGSLRLSCAASGFSFSSYSMKWVRQAPGKGLEWVSYISSSSDTIEYADSVKGRFTISRDNAKNSLYLQMNSLRDEDTAVYYCASVGLEFDYRGQGTLVTVSS | 4.6 | 506 | 1130 | 3.6 | 4.9 | 123 | 3.4 | no binding (tested: 100 nM) | 52.7 | 
5 | anti-FOLR1 heavy chain antibody (HCAb, UniAb) clone ID 352491 (antibody, V domains shown, Heavy chain-only antibody (no light chain), F18 family) VH: EVQLVESGGGLVQPGGSLRLSCAASGFSFSSYSMKWVRQAPGKGLEWVSYISSSSDTIEYAGSVKGRFTISRDNAKNSLYLQMNSLRDEDTAVYYCASVGLDFDYRGQGTLVTVSS | 4.3 | 1640 | 1480 | 5 | 3.3 | 159 | 2.1 | no binding (tested: 100 nM) | 37.4 | 
6 | anti-FOLR1 heavy chain antibody (HCAb, UniAb) clone ID 352496 (antibody, V domains shown, Heavy chain-only antibody (no light chain), F18 family) VH: EVQLVESGGGLVKPGGSLRLSCAASGFSFSSYSMKWVRQAPGKGLEWVSYISSSSDTIEYADSVKGRFTISRDNAKNSLYLQMNSLRDEDTAVYYCASVGLDFDYRGQGTLVTVSS | 3.5 | 1740 | 1410 | 3.8 | 1.1 | 157 | 4.3 | no binding (tested: 100 nM) | 41.8 | 
7 | anti-FOLR1 heavy chain antibody (HCAb, UniAb) clone ID 358433 (antibody, V domains shown, Heavy chain-only antibody (no light chain), F14 family) VH: EVQLVESGGGLVKPGGSLRLSCAASGFIFSSYSMNWVRQAPGKGLEWVSSISSGSSYIYYADSVKGRFTISRDNAKNSLYLQMNSLRAEDTAVYYCARDVTSGIAAAGSAFNIRGQGTLVTVSS | 5.9 |  | 1980 | 4.1 | 1.3 | 2530 | 3.1 |  | 6.34 | 3.6
